Assay results: patent publication US20150037868

Legend:
[1] = tested on: Pgi with HRV 3C recognition sequence inserted after amino acid 530
[2] = tested on: Pgi with HRV 3C recognition sequence inserted after amino acid 108
[3] = tested on: Pgi-HRV-I526 (Pgi with HRV 3C recognition sequence inserted after amino acid 526)
[4] = tested on: Pgi with HRV 3C recognition sequence inserted after amino acid 529
[5] = tested on: Pta variant with HRV protease cleavage motif inserted after amino acid 382
[6] = tested on: Pgi with HRV 3C recognition sequence inserted after amino acid 110
[7] = tested on: wild-type Pgi protein (phosphoglucose isomerase of Escherichia coli)
[8] = tested on: Pgi with HRV 3C recognition sequence inserted after amino acid 527
[9] = tested on: Pgi with HRV 3C recognition sequence inserted after amino acid 109
[10] = tested on: Pta variant with HRV protease cleavage motif inserted after amino acid 387
[11] = tested on: Pgi with HRV 3C recognition sequence inserted after amino acid 410
[12] = tested on: Pgi with HRV 3C recognition sequence inserted after amino acid 532
[13] = tested on: Pgi with HRV 3C recognition sequence inserted after amino acid 531
[14] = tested on: Pgi with HRV 3C recognition sequence inserted after amino acid 138
[15] = tested on: Pta variant with HRV protease cleavage motif inserted after amino acid 409
[16] = tested on: Pta variant with HRV protease cleavage motif inserted after amino acid 381
[17] = tested on: Pgi with HRV 3C recognition sequence inserted after amino acid 528

exogenous HRV 3C protease (ACCELAGEN H0101S)
Pgi Activity/Activity wild type, +protease; -protease value 0.33 [1]: 0.12
Pgi activity in clarified lysate, +protease (10 units exogenous HRV 3C protease, 4 h, 37 C); -protease value 0.77 (µmol/min/mg total protein) [1]: 0.29
Pgi Activity/Activity wild type, +protease; -protease value 0.94 [2]: 0.86
Pgi activity in clarified lysate, +protease (10 units exogenous HRV 3C protease, 4 h, 37 C); -protease value 2.16 (µmol/min/mg total protein) [2]: 2.03
Pgi Activity/Activity wild type, +protease; -protease value 0.83 [3]: 0.19
Pgi activity in clarified lysate, +protease (10 units exogenous HRV 3C protease, 4 h, 37 C); -protease value 1.92 (µmol/min/mg total protein) [3]: 0.44
Pgi Activity/Activity wild type, +protease; -protease value 0.64 [4]: 0.5
Pgi activity in clarified lysate, +protease (10 units exogenous HRV 3C protease, 4 h, 37 C); -protease value 1.48 (µmol/min/mg total protein) [4]: 1.19
in vitro Pta activity with or without exogenously supplied HRV protease, 30 minutes at 37 C [5]: In all cases, Pta activity was dramatically reduced upon incubation with HRV protease.
Pgi Activity/Activity wild type, +protease; -protease value 0.92 [6]: 0.84
Pgi activity in clarified lysate, +protease (10 units exogenous HRV 3C protease, 4 h, 37 C); -protease value 2.13 (µmol/min/mg total protein) [6]: 1.99
Pgi Activity/Activity wild type, +protease; -protease value 1 [7]: 1
Pgi activity in clarified lysate, +protease (10 units exogenous HRV 3C protease, 4 h, 37 C); -protease value 2.31 (µmol/min/mg total protein) [7]: 2.37
Pgi Activity/Activity wild type, +protease; -protease value 0.84 [8]: 0.6
Pgi activity in clarified lysate, +protease (10 units exogenous HRV 3C protease, 4 h, 37 C); -protease value 1.93 (µmol/min/mg total protein) [8]: 1.42
Pgi Activity/Activity wild type, +protease; -protease value 1.10 [9]: 0.78
Pgi activity in clarified lysate, +protease (10 units exogenous HRV 3C protease, 4 h, 37 C); -protease value 2.54 (µmol/min/mg total protein) [9]: 1.86
in vitro Pta activity with or without exogenously supplied HRV protease, 30 minutes at 37 C [10]: In all cases, Pta activity was dramatically reduced upon incubation with HRV protease.
Pgi Activity/Activity wild type, +protease; -protease value 0.50 [11]: 0.41
Pgi activity in clarified lysate, +protease (10 units exogenous HRV 3C protease, 4 h, 37 C); -protease value 1.16 (µmol/min/mg total protein) [11]: 0.96
Pgi Activity/Activity wild type, +protease; -protease value 0.50 [12]: 0.22
Pgi activity in clarified lysate, +protease (10 units exogenous HRV 3C protease, 4 h, 37 C); -protease value 1.15 (µmol/min/mg total protein) [12]: 0.52
Pgi Activity/Activity wild type, +protease; -protease value 0.56 [13]: 0.28
Pgi activity in clarified lysate, +protease (10 units exogenous HRV 3C protease, 4 h, 37 C); -protease value 1.29 (µmol/min/mg total protein) [13]: 0.67
Pgi Activity/Activity wild type, +protease; -protease value 0.27 [14]: 0.16
Pgi activity in clarified lysate, +protease (10 units exogenous HRV 3C protease, 4 h, 37 C); -protease value 0.62 (µmol/min/mg total protein) [14]: 0.37
in vitro Pta activity with or without exogenously supplied HRV protease, 30 minutes at 37 C [15]: In all cases, Pta activity was dramatically reduced upon incubation with HRV protease.
in vitro Pta activity with or without exogenously supplied HRV protease, 30 minutes at 37 C [16]: In all cases, Pta activity was dramatically reduced upon incubation with HRV protease.
Pgi Activity/Activity wild type, +protease; -protease value 0.45 [17]: 0.26
Pgi activity in clarified lysate, +protease (10 units exogenous HRV 3C protease, 4 h, 37 C); -protease value 1.04 (µmol/min/mg total protein) [17]: 0.63
